# Laboratory results published in patent US20180155451A1 (published 2018).
# T1: FcγRIIb (human, UniProt P31994 43-217)
# T1 construct: extracellular domain; also called FcgRIIb; 2b
# T1 sequence (looked up): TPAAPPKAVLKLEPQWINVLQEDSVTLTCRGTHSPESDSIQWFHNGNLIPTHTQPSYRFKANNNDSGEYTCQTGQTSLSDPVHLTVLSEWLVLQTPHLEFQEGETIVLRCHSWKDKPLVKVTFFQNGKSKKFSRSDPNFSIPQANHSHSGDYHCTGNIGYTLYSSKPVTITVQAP
# B1: GpH7-A5/GpH7-B3 variant (G236_16H)/GpL16-k0 (antibody, human IgG1, kappa)
# heavy 1: not shown
# heavy 2: not shown
# light: DIVMTQSPLSLPVTPGEPASISCQASESLVHSNRNTYLHWYLQKPGQSPQLLIYKVSNRFSGVPDRFSGSGSGTDFTLKISRVEAEDVGVYYCSQNTHVPPTFGQGTKVEIERTVAAPSVFIFPPSDEQLKSGTASVVCLLNNFYPREAKVQWKVDNALQSGNSQESVTEQDSKDSTYSLSSTLTLSKADYEKHKVYACEVTHQGLSSPVTKSFNRGEC
# notes: IgG1 heterodimer, mutation in the GpH7-B3 chain only; also called He Ab
# B2: GpH7-A5/GpH7-B3 variant (P271_02A)/GpL16-k0 (antibody, human IgG1, kappa)
# heavy 1: not shown
# heavy 2: not shown
# light: B1 light
# notes: as for B1
# B3: GpH7-A5/GpH7-B3 variant (L235_13S)/GpL16-k0 (antibody, human IgG1, kappa)
# heavy 1: not shown
# heavy 2: not shown
# light: B1 light
# notes: as for B1
# B4: GpH7-A5/GpH7-B3 variant (H268_04F)/GpL16-k0 (antibody, human IgG1, kappa)
# heavy 1: not shown
# heavy 2: not shown
# light: B1 light
# notes: as for B1
# B5: GpH7-A5/GpH7-B3 variant (L234_19Q)/GpL16-k0 (antibody, human IgG1, kappa)
# heavy 1: not shown
# heavy 2: not shown
# light: B1 light
# notes: as for B1
# B6: GpH7-A5/GpH7-B3 variant (P271_04F)/GpL16-k0 (antibody, human IgG1, kappa)
# heavy 1: not shown
# heavy 2: not shown
# light: B1 light
# notes: as for B1
# B7: GpH7-A5/GpH7-B3 variant (L234_15Y)/GpL16-k0 (antibody, human IgG1, kappa)
# heavy 1: not shown
# heavy 2: not shown
# light: B1 light
# notes: IgG1 heterodimer, L234Y in the GpH7-B3 chain only; also called GpH7-A5/GpH7-B3-01-15Y/GpL16-k0; He Ab
# B8: GpH7-A5/GpH7-B3 variant (H268_14T)/GpL16-k0 (antibody, human IgG1, kappa)
# heavy 1: not shown
# heavy 2: not shown
# light: B1 light
# notes: as for B1
# B9: GpH7-A5/GpH7-B3 variant (L235_18N)/GpL16-k0 (antibody, human IgG1, kappa)
# heavy 1: not shown
# heavy 2: not shown
# light: B1 light
# notes: as for B1
# B10: GpH7-A5/GpH7-B3 variant (L234_04F)/GpL16-k0 (antibody, human IgG1, kappa)
# heavy 1: not shown
# heavy 2: not shown
# light: B1 light
# notes: as for B1
# B11: GpH7-A5/GpH7-B3 variant (G237_05P)/GpL16-k0 (antibody, human IgG1, kappa)
# heavy 1: not shown
# heavy 2: not shown
# light: B1 light
# notes: as for B1
# B12: GpH7-A5/GpH7-B3 variant (L235_14T)/GpL16-k0 (antibody, human IgG1, kappa)
# heavy 1: not shown
# heavy 2: not shown
# light: B1 light
# notes: as for B1
# B13: GpH7-A5/GpH7-B3 variant (S267_16H)/GpL16-k0 (antibody, human IgG1, kappa)
# heavy 1: not shown
# heavy 2: not shown
# light: B1 light
# notes: as for B1
# B14: GpH7-A5/GpH7-B3 variant (S239_14T)/GpL16-k0 (antibody, human IgG1, kappa)
# heavy 1: not shown
# heavy 2: not shown
# light: B1 light
# notes: as for B1
# B15: GpH7-A5/GpH7-B3 variant (G236_20W)/GpL16-k0 (antibody, human IgG1, kappa)
# heavy 1: not shown
# heavy 2: not shown
# light: B1 light
# notes: IgG1 heterodimer, G236W in the GpH7-B3 chain only; also called GpH7-A5/GpH7-B3-03-20W/GpL16-k0; He Ab
# B16: GpH7-A5/GpH7-B3 variant (H268_11K)/GpL16-k0 (antibody, human IgG1, kappa)
# heavy 1: not shown
# heavy 2: not shown
# light: B1 light
# notes: as for B1
# B17: GpH7-A5/GpH7-B3 variant (S267_18N)/GpL16-k0 (antibody, human IgG1, kappa)
# heavy 1: not shown
# heavy 2: not shown
# light: B1 light
# notes: as for B1
# B18: GpH7-A5/GpH7-B3 variant (L234_16H)/GpL16-k0 (antibody, human IgG1, kappa)
# heavy 1: not shown
# heavy 2: not shown
# light: B1 light
# notes: as for B1
# B19: GpH7-A5/GpH7-B3 variant (L234_03V)/GpL16-k0 (antibody, human IgG1, kappa)
# heavy 1: not shown
# heavy 2: not shown
# light: B1 light
# notes: as for B1
# B20: GpH7-A5/GpH7-B3 variant (H268_12R)/GpL16-k0 (antibody, human IgG1, kappa)
# heavy 1: not shown
# heavy 2: not shown
# light: B1 light
# notes: as for B1
# B21: GpH7-A5/GpH7-B3 variant (H268_08L)/GpL16-k0 (antibody, human IgG1, kappa)
# heavy 1: not shown
# heavy 2: not shown
# light: B1 light
# notes: as for B1
# B22: GpH7-A5/GpH7-B3 variant (G236_19Q)/GpL16-k0 (antibody, human IgG1, kappa)
# heavy 1: not shown
# heavy 2: not shown
# light: B1 light
# notes: as for B1
# Biological target: T2, FcγRIa (human, UniProt P12314 16-292)
# T2 construct: extracellular domain; also called FcgRI; 1a
# Assay: SPR, captured antibody; relative to GpH7-A5/GpH7-B3/GpL16-k0
# T2 sequence (P12314 16-292): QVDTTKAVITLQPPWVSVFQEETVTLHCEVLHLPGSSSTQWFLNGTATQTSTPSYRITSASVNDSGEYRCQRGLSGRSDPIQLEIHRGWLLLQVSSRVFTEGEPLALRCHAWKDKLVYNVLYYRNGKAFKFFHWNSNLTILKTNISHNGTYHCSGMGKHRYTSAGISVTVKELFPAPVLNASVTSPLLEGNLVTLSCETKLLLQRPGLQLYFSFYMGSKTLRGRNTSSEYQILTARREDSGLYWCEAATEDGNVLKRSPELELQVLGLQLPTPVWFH
row,He/Con_1a,Binder
1,"83.5 relative, HeCon Ab = 100",B1
2,"104 relative, HeCon Ab = 100",B2
3,"90.5 relative, HeCon Ab = 100",B3
4,"106 relative, HeCon Ab = 100",B4
5,"95.7 relative, HeCon Ab = 100",B5
6,"102 relative, HeCon Ab = 100",B6
7,"100 relative, HeCon Ab = 100",B7
8,"112 relative, HeCon Ab = 100",B8
9,"92.2 relative, HeCon Ab = 100",B9
10,"101 relative, HeCon Ab = 100",B10
11,"44.5 relative, HeCon Ab = 100",B11
12,"88.7 relative, HeCon Ab = 100",B12
13,"100 relative, HeCon Ab = 100",B13
14,"101 relative, HeCon Ab = 100",B14
15,"105 relative, HeCon Ab = 100",B15
16,"106 relative, HeCon Ab = 100",B16
17,"102 relative, HeCon Ab = 100",B17
18,"94 relative, HeCon Ab = 100",B18
19,"104 relative, HeCon Ab = 100",B19
20,"106 relative, HeCon Ab = 100",B20
21,"107 relative, HeCon Ab = 100",B21
22,"92.1 relative, HeCon Ab = 100",B22

# Biological target: T1, FcγRIIb
# Assay: as above
row,He/Con_2b,Binder
1,"27.9 relative, HeCon Ab = 100",B1
2,"88 relative, HeCon Ab = 100",B2
3,"48.2 relative, HeCon Ab = 100",B3
4,"89.6 relative, HeCon Ab = 100",B4
5,"60.3 relative, HeCon Ab = 100",B5
6,"59.5 relative, HeCon Ab = 100",B6
7,"96.3 relative, HeCon Ab = 100",B7
8,"86 relative, HeCon Ab = 100",B8
9,"54.9 relative, HeCon Ab = 100",B9
10,"99.8 relative, HeCon Ab = 100",B10
11,"24.6 relative, HeCon Ab = 100",B11
12,"46.8 relative, HeCon Ab = 100",B12
13,"65.9 relative, HeCon Ab = 100",B13
14,"97.3 relative, HeCon Ab = 100",B14
15,"58.2 relative, HeCon Ab = 100",B15
16,"83 relative, HeCon Ab = 100",B16
17,"47.7 relative, HeCon Ab = 100",B17
18,"59.4 relative, HeCon Ab = 100",B18
19,"73.1 relative, HeCon Ab = 100",B19
20,"89.8 relative, HeCon Ab = 100",B20
21,"67.8 relative, HeCon Ab = 100",B21
22,"46.6 relative, HeCon Ab = 100",B22
